14 molecules from US20230365662A1 can be followed below.

The labels stand for the following.
B1: parental mouse (KB001) Fab FASEBA, VL variant Q91M (Fab, V domains shown)
VH: EVQLKQSGPGLVAPSQSLSITCTVSGFSLSIYSVHWVRQPPGKGLEWLGMIWGGGSSDYNSALKSRLSISKDNSKSQVFLKMNSLQTDDTAMYYCARNGNFYAMDYWGQGTSVTVSS
VL: QIVLTQSPAIMSASLGERVTMTCTASSSVSSSFLHWYQQKPGSSPQLWIYSTSNLASGVPARFSGSGSGTSYSLTISSMEAEDAATYYCHMYHHSPYIYTFGGGTKLEIK
B2: parental mouse (KB001) Fab FASEBA, VL variant S95Q (Fab, V domains shown)
VH: B1 VH
VL: B1 VL with M91Q, S95Q
B3: parental mouse (KB001) Fab FASEBA, VL variant Y92N (Fab, V domains shown)
VH: B1 VH
VL: B1 VL with M91Q, Y92N
B4: parental mouse (KB001) Fab FASEBA, VL variant H94F (Fab, V domains shown)
VH: B1 VH
VL: B1 VL with M91Q, H94F
B5: parental mouse (KB001) Fab FASEBA, VL variant H93N (Fab, V domains shown)
VH: B1 VH
VL: B1 VL with M91Q, H93N
B6: parental mouse (KB001) Fab FASEBA, VL variant Q91E (Fab, V domains shown)
VH: B1 VH
VL: B1 VL with M91E
B7: parental mouse (KB001) Fab FASEBA, VL variant Y92D (Fab, V domains shown)
VH: B1 VH
VL: B1 VL with M91Q, Y92D
B8: parental mouse (KB001) Fab FASEBA, VL variant S95A (Fab, V domains shown)
VH: B1 VH
VL: B1 VL with M91Q, S95A
B9: parental mouse (KB001) Fab FASEBA, VL variant S95F (Fab, V domains shown)
VH: B1 VH
VL: B1 VL with M91Q, S95F
B10: parental mouse (KB001) Fab FASEBA, VL variant S95N (Fab, V domains shown)
VH: B1 VH
VL: B1 VL with M91Q, S95N
B11: parental mouse (KB001) Fab FASEBA, VL variant S95W (Fab, V domains shown)
VH: B1 VH
VL: B1 VL with M91Q, S95W
B12: parental mouse (KB001) Fab FASEBA, VL variant H94Y (Fab, V domains shown)
VH: B1 VH
VL: B1 VL with M91Q, H94Y
B13: parental mouse (KB001) Fab FASEBA, VL variant S95E (Fab, V domains shown)
VH: B1 VH
VL: B1 VL with M91Q, S95E
B14: parental mouse (KB001) Fab FASEBA, VL variant S95T (Fab, V domains shown)
VH: B1 VH
VL: B1 VL with M91Q, S95T

Numbering of substitutions follows the chain as printed. Names may count otherwise. “And” between values parts separate entries of the source, which are not always exact repeats. Equal values may be shown once.

The target in the experiment is HRgpA-6H (Porphyromonas gingivalis) (UniProt P28784). In words: ELISA, Fab FASEBA supernatant on coated HRgpA-6H. On the technique in general: In an ELISA, binding on a coated surface is turned into a signal by an enzyme label.
Sequence of UniProt P28784 (P28784 228-991 limits assumed): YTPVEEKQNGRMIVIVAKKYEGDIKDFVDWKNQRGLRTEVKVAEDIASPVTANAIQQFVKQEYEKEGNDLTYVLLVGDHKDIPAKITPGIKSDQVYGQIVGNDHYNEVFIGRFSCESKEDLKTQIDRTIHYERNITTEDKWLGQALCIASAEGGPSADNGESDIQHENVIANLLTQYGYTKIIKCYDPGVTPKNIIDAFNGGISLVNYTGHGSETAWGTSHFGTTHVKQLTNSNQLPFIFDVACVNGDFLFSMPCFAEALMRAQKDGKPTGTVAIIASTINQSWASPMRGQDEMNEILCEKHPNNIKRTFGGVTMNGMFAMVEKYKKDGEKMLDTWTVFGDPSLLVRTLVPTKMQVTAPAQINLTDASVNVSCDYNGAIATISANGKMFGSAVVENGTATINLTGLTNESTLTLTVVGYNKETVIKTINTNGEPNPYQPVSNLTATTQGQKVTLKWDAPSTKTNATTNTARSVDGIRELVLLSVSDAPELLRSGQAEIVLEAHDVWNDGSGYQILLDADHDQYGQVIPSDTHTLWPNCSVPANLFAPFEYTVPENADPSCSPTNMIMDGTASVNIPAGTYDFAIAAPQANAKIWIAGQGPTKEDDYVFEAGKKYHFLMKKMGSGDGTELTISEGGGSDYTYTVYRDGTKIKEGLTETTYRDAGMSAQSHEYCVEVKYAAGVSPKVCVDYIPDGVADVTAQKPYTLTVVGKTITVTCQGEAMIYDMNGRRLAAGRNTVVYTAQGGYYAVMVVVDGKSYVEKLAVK
Take B1: the OD450nm worked out at 0.757 OD450nm and the Ratio OD(Variant)/OD(WT) is 0.879 ratio to WT.

With B2, the OD450nm worked out at 0.893 OD450nm and the Ratio OD(Variant)/OD(WT) is 0.972 ratio to WT.

As to B3, the OD450nm is 0.773 OD450nm and the Ratio OD(Variant)/OD(WT) was 0.821 ratio to WT.

B4: the OD450nm was determined as 0.77 OD450nm and the Ratio OD(Variant)/OD(WT) was 0.838 ratio to WT.

Regarding B5, the OD450nm came to 0.857 OD450nm and the Ratio OD(Variant)/OD(WT) is 0.91 ratio to WT.

Take B6: the OD450nm is 0.709 OD450nm and 0.694 OD450nm and 0.701 OD450nm; the Ratio OD(Variant)/OD(WT) is 0.823 ratio to WT and 0.806 ratio to WT and 0.814 ratio to WT.

Consider B7, for which the OD450nm worked out at 0.758 OD450nm and the Ratio OD(Variant)/OD(WT) is 0.805 ratio to WT.

Take B8: the OD450nm is 0.83 OD450nm and 0.872 OD450nm; the Ratio OD(Variant)/OD(WT) is 0.904 ratio to WT and 0.949 ratio to WT.

For B9, the OD450nm turned out to be 0.837 OD450nm and the Ratio OD(Variant)/OD(WT) was 0.911 ratio to WT.

On to B10, for which the OD450nm was 0.863 OD450nm and 0.884 OD450nm; the Ratio OD(Variant)/OD(WT) was 0.94 ratio to WT and 0.962 ratio to WT.

With B11, the OD450nm was 0.804 OD450nm and 0.79 OD450nm; the Ratio OD(Variant)/OD(WT) was 0.875 ratio to WT and 0.86 ratio to WT.

For the molecule B12, the OD450nm was 0.865 OD450nm and the Ratio OD(Variant)/OD(WT) was 0.942 ratio to WT.

In the case of B13, the OD450nm was 0.855 OD450nm and 0.82 OD450nm; the Ratio OD(Variant)/OD(WT) is 0.931 ratio to WT and 0.893 ratio to WT.

Take B14: the OD450nm was 0.871 OD450nm and the Ratio OD(Variant)/OD(WT) is 0.948 ratio to WT.
